{
  "source": "IntAct's records for PubMed 23112296",
  "parents": {"B1": {"name": "Keratin, type I cytoskeletal 18 (Homo sapiens), P05783 (parent)", "chain": "MSFTTRSTFSTNYRSLGSVQAPSYGARPVSSAASVYAGAGGSGSRISVSRSTSFRGGMGSGGLATGIAGGLAGMGGIQNEKETMQSLNDRLASYLDRVRSLETENRRLESKIREHLEKKGPQVRDWSHYFKIIEDLRAQIFANTVDNARIVLQIDNARLAADDFRVKYETELAMRQSVENDIHGLRKVIDDTNITRLQLETEIEALKEELLFMKKNHEEEVKGLQAQIASSGLTVEVDAPKSQDLAKIMADIRAQYDELARKNREELDKYWSQQIEESTTVVTTQSAEVGAAETTLTELRRTVQSLEIDLDSMRNLKASLENSLREVEARYALQMEQLNGILLHLESELAQTRAEGQRQAQEYEALLNIKVKLEAEIATYRRLLEDGEDFNLGDALDSSNSMQTIQKTTTRRIVDGKVVSETNDTKVLRH"}},
  "data": [
    {"variants_of": "B1", "conditions": "with becn1_human BECN1, Q14457", "values": [
      {"variant": "MSFTTRSTFSTNYRSLGSVQAPSYGARPVSSAAAVYAGAGGSGSRISVSRSTSFRGGMGSGGLATGIAGGLAGMGGIQNEKETMQSLNDRLASYLDRVRSLETENRRLESKIREHLEKKGPQVRDWSHYFKIIEDLRAQIFANTVDNARIVLQIDNARLAADDFRVKYETELAMRQSVENDIHGLRKVIDDTNITRLQLETEIEALKEELLFMKKNHEEEVKGLQAQIASSGLTVEVDAPKSQDLAKIMADIRAQYDELARKNREELDKYWSQQIEESTTVVTTQSAEVGAAETTLTELRRTVQSLEIDLDSMRNLKASLENSLREVEARYALQMEQLNGILLHLESELAQTRAEGQRQAQEYEALLNIKVKLEAEIATYRRLLEDGEDFNLGDALDSSNSMQTIQKTTTRRIVDGKVVSETNDTKVLRH", "note": "[S34A]", "effect of a mutation on the interaction": "disrupting interaction strength"}
    ]}
  ]
}
